Laboratory results from the supplement of paper PMC9112550, “Optimization of the antimicrobial peptide Bac7 by deep mutational scanning” (BMC Biology, 2022).

Tested on: Escherichia coli TOP10
Assay: shrunken log2 fold change of peptide-encoding DNA abundance (4.5 h post-induction vs induction); higher = less antimicrobial activity (less host growth inhibition)
Conditions: time post-induction: 4.5 h; library: site-saturation at positions 5, 18, 19, 20
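Further: peptides expressed intracellularly from a pBAD plasmid library in pooled LB shake-flask culture, induced with 0.3% L-arabinose, DNA abundance read by NGS, three biological replicates, DESeq2 with apeglm shrinkage.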

| Sequence | shrunken log2 fold change |
| --- | --- |
| RRIRDRPPRLPRPRPRPTTAPRP | 1.3 |
| RRIRKRPPRLPRPRPRPKVHPRP | 0.243 |
| RRIRKRPPRLPRPRPRPFAPPRP | 0.792 |
| RRIRGRPPRLPRPRPRPPTWPRP | 0.466 |
| RRIRPRPPRLPRPRPRPADAPRP | 0.29 |
| RRIRPRPPRLPRPRPRPSNWPRP | -0.184 |
| RRIRLRPPRLPRPRPRPLKFPRP | -0.57 |
| RRIRCRPPRLPRPRPRPLKWPRP | -0.0792 |
| RRIRNRPPRLPRPRPRPEKVPRP | -0.105 |
| RRIRKRPPRLPRPRPRPCGKPRP | 0.00875 |
| RRIRYRPPRLPRPRPRPMGTPRP | -0.304 |
| RRIRCRPPRLPRPRPRPIIEPRP | -0.851 |
| RRIRPRPPRLPRPRPRPSRCPRP | 0.093 |
| RRIRYRPPRLPRPRPRPKHQPRP | -0.441 |
| RRIRPRPPRLPRPRPRPLQMPRP | 0.205 |
| RRIRARPPRLPRPRPRPGAPPRP | 0.703 |
| RRIRSRPPRLPRPRPRPRQHPRP | 0.169 |
| RRIRQRPPRLPRPRPRPVVVPRP | -0.0728 |
| RRIRARPPRLPRPRPRPKVSPRP | 0.669 |
| RRIRSRPPRLPRPRPRPGNEPRP | -0.183 |
| RRIRWRPPRLPRPRPRPPSHPRP | 0.163 |
| RRIRARPPRLPRPRPRPRVMPRP | 0.197 |
| RRIRDRPPRLPRPRPRPGWAPRP | 0.718 |
| RRIRARPPRLPRPRPRPVQNPRP | 0.814 |
| RRIRRRPPRLPRPRPRPRMLPRP | 0.486 |

| Sequence | shrunken log2 fold change |
| --- | --- |
| RRIRQRPPRLPRPRPRPQIFPRP | -0.0511 |
| RRIRMRPPRLPRPRPRPDQLPRP | 0.391 |
| RRIRERPPRLPRPRPRPIRGPRP | 0.0978 |
| RRIRGRPPRLPRPRPRPWAKPRP | -0.0167 |
| RRIRARPPRLPRPRPRPRQYPRP | -0.294 |
| RRIRCRPPRLPRPRPRPMTNPRP | -0.434 |
| RRIRIRPPRLPRPRPRPLHGPRP | -0.308 |
| RRIRVRPPRLPRPRPRPYLPPRP | -0.453 |
| RRIRYRPPRLPRPRPRPTKEPRP | -0.00889 |
| RRIRYRPPRLPRPRPRPNGSPRP | -0.289 |
| RRIRYRPPRLPRPRPRPFATPRP | -0.49 |
| RRIRYRPPRLPRPRPRPVRYPRP | -0.157 |
| RRIRQRPPRLPRPRPRPAHHPRP | 0.138 |
| RRIRCRPPRLPRPRPRPIIVPRP | -0.425 |
| RRIRERPPRLPRPRPRPSEPPRP | 0.227 |
| RRIRLRPPRLPRPRPRPRYFPRP | -0.319 |
| RRIRQRPPRLPRPRPRPCTEPRP | 0.0363 |
| RRIRYRPPRLPRPRPRPEHIPRP | -0.0114 |
| RRIRYRPPRLPRPRPRPAMTPRP | 0.165 |
| RRIRCRPPRLPRPRPRPKPMPRP | -0.00253 |
| RRIRIRPPRLPRPRPRPTREPRP | 0.255 |
| RRIRQRPPRLPRPRPRPLIDPRP | -0.206 |
| RRIRKRPPRLPRPRPRPYMAPRP | -0.0833 |
| RRIRYRPPRLPRPRPRPEYRPRP | -0.00979 |
| RRIRWRPPRLPRPRPRPENRPRP | -0.0139 |

| Sequence | shrunken log2 fold change |
| --- | --- |
| RRIRCRPPRLPRPRPRPFVRPRP | -0.141 |
| RRIRYRPPRLPRPRPRPLFYPRP | -0.335 |
| RRIRLRPPRLPRPRPRPFISPRP | -0.182 |
| RRIRLRPPRLPRPRPRPPWMPRP | 0.167 |
| RRIRCRPPRLPRPRPRPRHDPRP | -0.234 |
| RRIRRRPPRLPRPRPRPTLFPRP | 0.826 |
| RRIRIRPPRLPRPRPRPWPCPRP | -0.0182 |
| RRIRCRPPRLPRPRPRPMGPPRP | 0.128 |
| RRIRHRPPRLPRPRPRPKVFPRP | -0.00193 |
| RRIRMRPPRLPRPRPRPVGQPRP | -0.00911 |
| RRIRWRPPRLPRPRPRPCEVPRP | -0.00149 |
| RRIRNRPPRLPRPRPRPPCKPRP | 0.0896 |
| RRIRIRPPRLPRPRPRPVTMPRP | -1.03 |
| RRIRPRPPRLPRPRPRPNTFPRP | -0.0232 |
| RRIRMRPPRLPRPRPRPVYTPRP | 0.194 |
| RRIRYRPPRLPRPRPRPQGNPRP | -0.0344 |
| RRIRDRPPRLPRPRPRPLKNPRP | 0.0245 |
| RRIRDRPPRLPRPRPRPSFYPRP | -0.128 |
| RRIRLRPPRLPRPRPRPLHEPRP | -0.00702 |
| RRIRTRPPRLPRPRPRPRIAPRP | 0.102 |
| RRIRDRPPRLPRPRPRPYYMPRP | -0.399 |
| RRIRMRPPRLPRPRPRPVLGPRP | 0.741 |
| RRIRCRPPRLPRPRPRPPEEPRP | 0.301 |
| RRIRERPPRLPRPRPRPFSLPRP | -0.2 |
| RRIRPRPPRLPRPRPRPNGRPRP | -0.00968 |

| Sequence | shrunken log2 fold change |
| --- | --- |
| RRIRVRPPRLPRPRPRPNWFPRP | 0.0817 |
| RRIRVRPPRLPRPRPRPTVYPRP | -0.0885 |
| RRIRVRPPRLPRPRPRPWNQPRP | 0.0232 |
| RRIRYRPPRLPRPRPRPIYWPRP | -0.204 |
| RRIRYRPPRLPRPRPRPFWKPRP | 0.226 |
| RRIRMRPPRLPRPRPRPFRWPRP | -0.0454 |
| RRIRQRPPRLPRPRPRPRYPPRP | -0.0427 |
| RRIRARPPRLPRPRPRPHYHPRP | -0.332 |
| RRIRIRPPRLPRPRPRPYTRPRP | -0.353 |
| RRIRSRPPRLPRPRPRPHIFPRP | -0.197 |
| RRIRSRPPRLPRPRPRPSWSPRP | -0.0102 |
| RRIRWRPPRLPRPRPRPKIEPRP | -0.0252 |
| RRIRLRPPRLPRPRPRPVMSPRP | -0.152 |
| RRIRERPPRLPRPRPRPQRFPRP | 0.0827 |
| RRIRWRPPRLPRPRPRPHTQPRP | -0.56 |
| RRIRHRPPRLPRPRPRPPTCPRP | 0.0978 |
| RRIRRRPPRLPRPRPRPGHHPRP | -0.139 |
| RRIRHRPPRLPRPRPRPTLDPRP | 0.0219 |
| RRIRVRPPRLPRPRPRPRGRPRP | 0.197 |
| RRIRARPPRLPRPRPRPKAPPRP | 0.56 |
| RRIRKRPPRLPRPRPRPFQMPRP | -0.28 |
| RRIRMRPPRLPRPRPRPAGNPRP | 0.396 |
| RRIRMRPPRLPRPRPRPVHRPRP | 0.872 |
| RRIRRRPPRLPRPRPRPAMHPRP | 0.422 |
| RRIRIRPPRLPRPRPRPRPCPRP | -0.0531 |

| Sequence | shrunken log2 fold change |
| --- | --- |
| RRIRSRPPRLPRPRPRPWTAPRP | -0.22 |
| RRIRMRPPRLPRPRPRPTDQPRP | 1.46 |
| RRIRKRPPRLPRPRPRPFPGPRP | -0.0018 |
| RRIRYRPPRLPRPRPRPLCGPRP | -0.557 |
| RRIRLRPPRLPRPRPRPNTGPRP | -0.359 |
| RRIRTRPPRLPRPRPRPGMNPRP | -0.15 |
| RRIRERPPRLPRPRPRPDDMPRP | -0.0903 |
| RRIRMRPPRLPRPRPRPHVAPRP | 0.00497 |
| RRIRTRPPRLPRPRPRPVMLPRP | -0.157 |
| RRIRLRPPRLPRPRPRPAEMPRP | -0.111 |
| RRIRCRPPRLPRPRPRPCITPRP | -0.0767 |
| RRIRSRPPRLPRPRPRPLEIPRP | 0.11 |
| RRIRCRPPRLPRPRPRPGTVPRP | -0.339 |
| RRIRFRPPRLPRPRPRPWQDPRP | -0.00804 |
| RRIRTRPPRLPRPRPRPVGWPRP | 0.753 |
| RRIRLRPPRLPRPRPRPGLYPRP | -0.476 |
| RRIRGRPPRLPRPRPRPHFMPRP | 0.152 |
| RRIRDRPPRLPRPRPRPWKDPRP | -0.0129 |
| RRIRDRPPRLPRPRPRPRTEPRP | 0.0904 |
| RRIRDRPPRLPRPRPRPDTKPRP | 0.0114 |
| RRIRQRPPRLPRPRPRPDTNPRP | -0.413 |
| RRIRCRPPRLPRPRPRPPEIPRP | 0.0794 |
| RRIRPRPPRLPRPRPRPDMIPRP | 0.249 |
| RRIRDRPPRLPRPRPRPSSQPRP | -0.0971 |
| RRIRMRPPRLPRPRPRPVLDPRP | 0.331 |

| Sequence | shrunken log2 fold change |
| --- | --- |
| RRIRARPPRLPRPRPRPRNRPRP | 0.0657 |
| RRIRQRPPRLPRPRPRPCKVPRP | -0.101 |
| RRIRRRPPRLPRPRPRPLCMPRP | -0.126 |
| RRIRQRPPRLPRPRPRPQAFPRP | -0.0347 |
| RRIRVRPPRLPRPRPRPQPVPRP | -0.195 |
| RRIRLRPPRLPRPRPRPRDPPRP | 0.968 |
| RRIRNRPPRLPRPRPRPRGRPRP | 0.316 |
| RRIRSRPPRLPRPRPRPLASPRP | 0.0667 |
| RRIRQRPPRLPRPRPRPHVSPRP | -0.108 |
| RRIRFRPPRLPRPRPRPHHHPRP | -0.678 |
| RRIRFRPPRLPRPRPRPMLWPRP | 0.165 |
| RRIRFRPPRLPRPRPRPFKEPRP | -0.173 |
| RRIRRRPPRLPRPRPRPLEQPRP | 0.166 |
| RRIRKRPPRLPRPRPRPTLHPRP | 0.359 |
| RRIRIRPPRLPRPRPRPGFSPRP | -0.0749 |
| RRIRTRPPRLPRPRPRPPTTPRP | 0.302 |
| RRIRERPPRLPRPRPRPVQIPRP | 0.27 |
| RRIRMRPPRLPRPRPRPIKNPRP | 0.387 |
| RRIRSRPPRLPRPRPRPQSTPRP | -0.24 |
| RRIRMRPPRLPRPRPRPWRIPRP | -0.0845 |
| RRIRTRPPRLPRPRPRPWDLPRP | 0.12 |
| RRIRMRPPRLPRPRPRPSRKPRP | 0.148 |
| RRIRMRPPRLPRPRPRPVVTPRP | 0.0538 |
| RRIRYRPPRLPRPRPRPFWRPRP | 0.0184 |
| RRIRKRPPRLPRPRPRPFPIPRP | -0.0405 |
